Source: patent US20230340128A1 (Xencor, published 2023)

How the values were obtained:
[1] = biological target: T1, human mesothelin (MSLN) (human, UniProt Q13421 296-580, limits assumed); experiment: BLI (Octet), bsAb in 1+1 Fab-scFv-Fc format
T1 construct: Antigen of the Octet KD values

[2] = biological target: T1, human mesothelin (MSLN); experiment: KD quoted in the FIG. 25 legend; Octet (BLI) per FIGS. 20-21

Row | Binder | Kd [1] | Response [1] | koff [1] | kon [1] | Kd [2]
1 | XENP32563 (bispecific antibody) chain 1: QVQLVQSGAEVKKPGASVKVSCKASGYTFTSYWMHWVRQAPGQGLEWMGMIHPNSDNTIYYEKFQGRVTMTVDKSISTAYMELSRLRSDDTAVYYCAIIITPVVPKFDYWGQGTLVTVSSASTKGPSVFPLAPSSKSTSGGTAALGCLVKDYFPEPVTVSWNSGALTSGVHTFPAVLQSSGLYSLSSVVTVPSSSLGTQTYICNVNHKPSDTKVDKKVEPKSCDKTHTCPPCPAPPVAGPSVFLFPPKPKDTLMISRTPEVTCVVVDVKHEDPEVKFNWYVDGVEVHNAKTKPREEEYNSTYRVVSVLTVLHQDWLNGKEYKCKVSNKALPAPIEKTISKAKGQPREPQVYTLPPSREEMTKNQVSLTCDVSGFYPSDIAVEWESDGQPENNYKTTPPVLDSDGSFFLYSKLTVDKSRWEQGDVFSCSVMHEALHNHYTQKSLSLSPGK chain 2: not shown chain 3: DIVMTQSPDSLAVSLGERATINCKASHDVGTYVAWYQQKPGQSPKLLIYWASTRHTGVPDRFTGSGSGTDFTLTISSLQAEDVAVYFCQQYSSYPLTFGAGTKLEIKRTVAAPSVFIFPPSDEQLKSGTASVVCLLNNFYPREAKVQWKVDNALQSGNSQESVTEQDSKDSTYSLSSTLTLSKADYEKHKVYACEVTHQGLSSPVTKSFNRGEC | 12.8 nM | 0.898 | 0.00672 s⁻¹ | 527000 M⁻¹ s⁻¹ | ~12.8 nM
2 | XENP32948 (bispecific antibody) chain 1: QVQLVQSGAEVKKPGASVKVSCKASGYTFTSYWMHWVRQAPGQGLEWMGMIHPNSDNTIYYQKFQGRVTMTVDKSISTAYMELSRLRSDDTAVYYCAIIITPVVPKFDYWGQGTLVTVSSASTKGPSVFPLAPSSKSTSGGTAALGCLVKDYFPEPVTVSWNSGALTSGVHTFPAVLQSSGLYSLSSVVTVPSSSLGTQTYICNVNHKPSDTKVDKKVEPKSCDKTHTCPPCPAPPVAGPSVFLFPPKPKDTLMISRTPEVTCVVVDVKHEDPEVKFNWYVDGVEVHNAKTKPREEEYNSTYRVVSVLTVLHQDWLNGKEYKCKVSNKALPAPIEKTISKAKGQPREPQVYTLPPSREEMTKNQVSLTCDVSGFYPSDIAVEWESDGQPENNYKTTPPVLDSDGSFFLYSKLTVDKSRWEQGDVFSCSVMHEALHNHYTQKSLSLSPGK chain 2: QVQLVQSGAEVKKPGASVKVSCKASGYTFTSYWMHWVRQAPGQGLEWMGMIHPNSDNTIYYQKFQGRVTMTVDKSISTAYMELSRLRSDDTAVYYCAIIITPVVPKFDYWGQGTLVTVSSASTKGPSVFPLAPSSKSTSGGTAALGCLVKDYFPEPVTVSWNSGALTSGVHTFPAVLQSSGLYSLSSVVTVPSSSLGTQTYICNVNHKPSNTKVDKKVEPKSCGGGGSGGGGSQAVVTQEPSLTVSPGGTVTLTCGSSTGAVTTSNYANWVQQKPGKSPRGLIGGTNKRAPGVPARFSGSLLGGKAALTISGAQPEDEADYYCALWYSNHWVFGGGTKLTVLGKPGSGKPGSGKPGSGKPGSEVQLVESGGGLVQPGGSLRLSCAASGFTFSTYAMNWVRQAPGKGLEWVGRIRSKANNYATYYADSVKGRFTISRDDSKNTLYLQMNSLRAEDTAVYYCVRHGNFGDSYVSWFAYWGQGTLVTVSSGGGGSGGGGSKTHTCPPCPAPPVAGPSVFLFPPKPKDTLMISRTPEVTCVVVDVKHEDPEVKFNWYVDGVEVHNAKTKPREEQYNSTYRVVSVLTVLHQDWLNGKEYKCKVSNKALPAPIEKTISKAKGQPREPQVYTLPPSREQMTKNQVKLTCLVKGFYPSDIAVEWESNGQPENNYKTTPPVLDSDGSFFLYSKLTVDKSRWQQGNVFSCSVMHEALHNHYTQKSLSLSPGK chain 3: DIVMTQSPDSLAVSLGERATINCKASHDVGTSVAWYQQKPGQSPKLLIYWASTRHTGVPDRFTGSGSGTDFTLTISSLQAEDVAVYFCQQYYSYPLTFGAGTKLEIKRTVAAPSVFIFPPSDEQLKSGTASVVCLLNNFYPREAKVQWKVDNALQSGNSQESVTEQDSKDSTYSLSSTLTLSKADYEKHKVYACEVTHQGLSSPVTKSFNRGEC |  |  |  |  | 10.2 nM
